Measurements from patent publication US20200239586A1.

T1: human Fn14 (human) (UniProt Q9NP84)
T1 sequence: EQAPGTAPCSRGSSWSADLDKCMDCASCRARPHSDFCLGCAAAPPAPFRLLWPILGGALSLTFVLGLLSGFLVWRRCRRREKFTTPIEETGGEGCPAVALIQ

T2: synthetic peptide hFn14 sub-domain 3 (human)
T2 sequence (peptide, biotin on the added C-terminal lysine): ASCRARPHSDFCLGK

T3: Histidine tagged hFn14 extracellular domain, bacterially expressed (human) (UniProt Q9NP84)
T3 sequence: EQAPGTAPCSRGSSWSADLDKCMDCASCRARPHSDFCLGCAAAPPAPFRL

B1: ITEM-1 (antibody, from another filing, V domains shown)
VH: EVKLEESGGGLVQPGGSMKLSCVASGFSFSNYWMNWVRQSPEKGLEWVAEIRLKSNNYATHYAESVKGRFTISRHDSKSSVYLQMNNLRAEDTGIYYCTRAYADYFDYWGQGTTLTVSS
VL: DIVLTQSPASLVVSLGQRATISCRASQSVSTSTYSYMHWYQQKPGQPPKILIKYASNLESGVPARFSGSGSGTDFTLNIHPVEEEDTATYYCQHSWEIPYTFGGGTKLEIKR
B2: ITEM-4 (antibody, from another filing, V domains shown)
VH: QVQLQQSGPELVKPGASVKMSCKASGYTFTDFIIAWVKQRTGQGLEWIGEIYPGTGRTYYSEKFRGKATLTADKSSNTAYMQLSSLTSVDSAVYFCARRTIYYDYDGDYWGQGTTLTVSS
VL: DIVMTQAAFSNPVTLGTSASISCRSSKSLLHSNGITYLYWYLQKPGQSPQLLIYQMSNLASGVPDRFSSSGSGTDFTLRISRVEAEDVGVYYCAHNLELPWTFGGGTKLELK

Columns and labels:
human Fn14 (human) = biological target: T1, human Fn14 (human); test: cell-based or functional assay
[1] = biological target: synthetic peptide hFn14 sub-domain 2 (human); test: ELISA on biotinylated sub-domain 2 peptide, mAb at 5 ng/ml
[2] = biological target: T2, synthetic peptide hFn14 sub-domain 3 (human); test: ELISA on biotinylated sub-domain 3 peptide, mAb at 0.2 ug/ml
[3] = biological target: T3, Histidine tagged hFn14 extracellular domain, bacterially expressed (human); test: SPR (ProteOn XPR36), mAb coupled to chip, His-tagged hFn14 analyte, Langmuir 1:1 fit

synthetic peptide hFn14 sub-domain 2 (human), sequence (peptide, as listed by the source): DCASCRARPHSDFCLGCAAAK

Binder | % Agonist, IL-8 secretion by A375 cells (human Fn14 (human)) | % Antagonist, IL-8 secretion by A375 cells (human Fn14 (human)) | % decrease in binding compared to CRCBT-06-001 and CRCBT-06-002 [1] | % decrease in binding compared with CRCBT-06-005 [2] | Kd [3] | koff [3] | kon [3]
B1 | 21% | 9% | 68% | 76% | 4.1 nM | 0.00147 s⁻¹ | 358000 M⁻¹ s⁻¹
B2 | 8% | 97% |  |  | 1.68 nM | 0.000864 s⁻¹ | 510000 M⁻¹ s⁻¹
